Laboratory results taken from patent US11034762 (CENTIVAX, dated 2021).
Where a chain is given by its changes, count along the chain named.

B1: COVID19_P21_H03 (scFv, V domains shown)
VH: QVQLVQSGAEVKKPGSSVKVSCKASGYTFTNYGINWVRQAPGQGLEWMGWMNPYSGNTGYAQKFQGRVTITADESTSTAYMELSSLRSEDTAVYYCAVLSGISTPMDVWGQGTLVTVSS
VL: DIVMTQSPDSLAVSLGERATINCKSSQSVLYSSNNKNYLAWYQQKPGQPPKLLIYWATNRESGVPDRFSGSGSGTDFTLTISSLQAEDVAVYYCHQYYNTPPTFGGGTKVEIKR
B2: COVID19_P10_A09 (scFv, V domains shown)
VH: B1 VH with N31D, G33Y, N35H, Y54N, K63N, V98G, L99G, P105A, M106W
VL: DIVMTQSPDSLAVSLGERATIRCTSSLSLQDRSNNKNYLTWYQQKPGQPPKLLIYWASTRESGVPDRFSGSGSGTDFTLTISSLQAEDVAVYYCQQHYSAPLTFGGGTKVEIKR
B3: COVID19_P21_E04 (scFv, V domains shown)
VH: B1 VH with V37M, Y54N, V98G, L99G
VL: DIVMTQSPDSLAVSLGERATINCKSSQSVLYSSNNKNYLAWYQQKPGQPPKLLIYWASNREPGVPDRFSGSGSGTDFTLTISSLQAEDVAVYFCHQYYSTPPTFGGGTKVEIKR
B4: COVID19_P21_B02 (scFv, V domains shown)
VH: B1 VH with Y54N, V98A, L99V
VL: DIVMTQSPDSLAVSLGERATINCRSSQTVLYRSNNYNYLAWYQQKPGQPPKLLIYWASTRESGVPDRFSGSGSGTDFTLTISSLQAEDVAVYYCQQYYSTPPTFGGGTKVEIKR
B5: COVID19_P22_F04 (scFv, V domains shown)
VH: QVQLVQSGAEVKKPGSSVKVSCKASGGGFITYWIGWVRQAPGQGLEWMGIIYPGDGEARYSQKFQGRVTITADESTSTAYMELSSLRSEDTAVYYCAGGSGISTPMDVWGQGTLVTVSS
VL: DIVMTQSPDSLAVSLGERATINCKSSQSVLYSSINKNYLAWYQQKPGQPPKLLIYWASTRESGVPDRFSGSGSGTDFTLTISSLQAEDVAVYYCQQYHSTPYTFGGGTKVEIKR
B6: COVID19_P21_A08 (scFv, V domains shown)
VH: B5 VH with G28T, I50W, Y52N, G54N, D55S, E57G, A58T, R59N, S61A
VL: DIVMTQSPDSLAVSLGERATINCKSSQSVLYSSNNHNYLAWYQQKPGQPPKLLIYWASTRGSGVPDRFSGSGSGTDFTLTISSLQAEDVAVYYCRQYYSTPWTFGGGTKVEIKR
B7: COVID19_P09_E11 (scFv, V domains shown)
VH: B5 VH with G28T, I30S, T31N, Y32H, W33A, G35S, P41Y, E57T, A58T
VL: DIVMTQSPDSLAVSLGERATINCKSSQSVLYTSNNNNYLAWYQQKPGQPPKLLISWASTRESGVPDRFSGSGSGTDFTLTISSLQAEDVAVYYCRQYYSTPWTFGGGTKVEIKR
B8: COVID19_P09_H09 (scFv, V domains shown)
VH: B5 VH with G28T, G35Y, Q65Y, G99S, S100G
VL: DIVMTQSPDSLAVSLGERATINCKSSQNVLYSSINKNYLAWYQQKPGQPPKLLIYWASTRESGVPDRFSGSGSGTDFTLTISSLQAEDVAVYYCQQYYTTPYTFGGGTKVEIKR
B9: COVID19_P21_B09 (scFv, V domains shown)
VH: B5 VH with G27Y, G28T, I30T, T31G, Y32H, W33Y, I34M, G35H, G56S
VL: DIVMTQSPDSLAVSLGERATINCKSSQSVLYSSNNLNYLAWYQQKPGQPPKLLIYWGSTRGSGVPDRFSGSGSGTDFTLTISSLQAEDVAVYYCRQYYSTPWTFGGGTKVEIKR
B10: COVID19_P22_H10 (scFv, V domains shown)
VH: B5 VH with I30S, M48V, I50W, Y52N, G54N, D55S, E57A, A58T, R59K, S61A
VL: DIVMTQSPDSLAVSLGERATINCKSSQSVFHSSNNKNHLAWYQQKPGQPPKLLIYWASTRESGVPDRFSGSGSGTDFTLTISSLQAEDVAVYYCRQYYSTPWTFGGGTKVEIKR
B11: COVID19_P10_C05 (scFv, V domains shown)
VH: B5 VH with G28T, G99S, S100G
VL: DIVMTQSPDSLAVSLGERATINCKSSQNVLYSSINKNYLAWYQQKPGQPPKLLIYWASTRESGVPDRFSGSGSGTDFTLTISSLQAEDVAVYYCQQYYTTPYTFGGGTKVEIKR
B12: COVID19_P10_D08 (scFv, V domains shown)
VH: QVQLVQSGAEVKKPGSSVKVSCKASGGTFNSHAISWVRQAPGQGLEWMGWINPNSGATNYAQKFQGRVTITADESTSTAYMELSSLRSEDTAVYYCAGGSGISTPVGVWGQGTLVTVSS
VL: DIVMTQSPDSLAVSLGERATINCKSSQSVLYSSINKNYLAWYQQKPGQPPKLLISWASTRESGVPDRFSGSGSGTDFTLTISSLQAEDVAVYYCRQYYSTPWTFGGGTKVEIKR
B13: COVID19_P21_E12 (scFv, V domains shown)
VH: QVQLVQSGAEVKKPGSSVKVSCKASGGTFISYAISWVRQAPGQGLEWMGGIIPTLGTYNYAQKFQGRVTITADESTSTAYMELSSLRSEDTAVYYCAGSWGISTPMDVWGQGTLVTVSS
VL: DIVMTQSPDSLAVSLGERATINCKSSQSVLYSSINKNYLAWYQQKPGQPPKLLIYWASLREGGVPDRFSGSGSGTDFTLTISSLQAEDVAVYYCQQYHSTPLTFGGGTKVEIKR
notes: also called COVID19_P21_El2

Columns and labels:
[1] = target: SARS-CoV-2 Receptor Binding Domain (RBD) protein (SARS-CoV-2, UniProt P0DTC2 319-541)
[2] = target: T1, SARS-CoV-1 Receptor Binding Domain (RBD) protein (SARS-CoV-1, UniProt P59594 306-527); experiment: SPR; clone listed as COV2 only at the 21st table, row 65, column 3
T1 construct: also called SARS1

[3] = target: T2, MERS Receptor Binding Domain (RBD) protein (MERS virus, UniProt K9N5Q8 367-606); experiment: as above
T2 construct: also called Middle East Respiratory Syndrome (MERS) virus
T2 sequence: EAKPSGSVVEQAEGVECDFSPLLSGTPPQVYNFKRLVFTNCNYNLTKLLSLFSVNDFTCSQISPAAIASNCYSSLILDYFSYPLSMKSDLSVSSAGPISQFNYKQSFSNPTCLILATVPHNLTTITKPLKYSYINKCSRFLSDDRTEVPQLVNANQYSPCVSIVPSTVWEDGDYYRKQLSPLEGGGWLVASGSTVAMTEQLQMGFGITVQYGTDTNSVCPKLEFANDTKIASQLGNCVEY

[4] = target: T1, SARS-CoV-1 Receptor Binding Domain …; experiment: SPR; clone listed as COV2 only at the 21st table, row 60, column 3
[5] = target: T2, MERS Receptor Binding Domain (RBD) …; experiment: as above
[6] = target: T1, SARS-CoV-1 Receptor Binding Domain …; experiment: SPR; clone listed as COV2 only at the 21st table, row 64, column 3
[7] = target: T2, MERS Receptor Binding Domain (RBD) …; experiment: as above
[8] = target: T1, SARS-CoV-1 Receptor Binding Domain …; experiment: SPR; clone listed as COV2 only at the 21st table, row 63, column 3
[9] = target: T2, MERS Receptor Binding Domain (RBD) …; experiment: as above
[10] = target: T1, SARS-CoV-1 Receptor Binding Domain …; experiment: SPR; clone listed as COV2 only at the 21st table, row 4, column 3
[11] = target: T2, MERS Receptor Binding Domain (RBD) …; experiment: as above
[12] = target: T1, SARS-CoV-1 Receptor Binding Domain …; experiment: SPR; clone listed as COV2 only at the 21st table, row 15, column 3
[13] = target: T2, MERS Receptor Binding Domain (RBD) …; experiment: as above
[14] = target: T1, SARS-CoV-1 Receptor Binding Domain …; experiment: SPR; clone listed as COV2 only at the 21st table, row 19, column 3
[15] = target: T2, MERS Receptor Binding Domain (RBD) …; experiment: as above
[16] = target: T1, SARS-CoV-1 Receptor Binding Domain …; experiment: SPR; clone listed as COV2 only at the 21st table, row 16, column 3
[17] = target: T2, MERS Receptor Binding Domain (RBD) …; experiment: as above
[18] = target: T1, SARS-CoV-1 Receptor Binding Domain …; experiment: SPR; clone listed as COV2 only at the 21st table, row 61, column 3
[19] = target: T2, MERS Receptor Binding Domain (RBD) …; experiment: as above
[20] = target: T1, SARS-CoV-1 Receptor Binding Domain …; experiment: SPR; clone listed as COV2 only at the 21st table, row 12, column 3
[21] = target: T2, MERS Receptor Binding Domain (RBD) …; experiment: as above
[22] = target: T1, SARS-CoV-1 Receptor Binding Domain …; experiment: SPR; clone listed as COV2 only at the 21st table, row 14, column 3
[23] = target: T2, MERS Receptor Binding Domain (RBD) …; experiment: as above
[24] = target: T1, SARS-CoV-1 Receptor Binding Domain …; experiment: SPR; clone listed as COV2 only at the 21st table, row 17, column 3
[25] = target: T2, MERS Receptor Binding Domain (RBD) …; experiment: as above
[26] = target: T1, SARS-CoV-1 Receptor Binding Domain …; experiment: SPR; clone listed as COV2 only at the 21st table, row 13, column 3
[27] = target: T2, MERS Receptor Binding Domain (RBD) …; experiment: as above

| Binder | Kd [1] | koff [1] | kon [1] | other results |
| --- | --- | --- | --- | --- |
| B1 | 11.6 nM | 0.00113 s⁻¹ | 97200 M⁻¹ s⁻¹ | binding result [2]: no binding (tested: up to 300 nM); binding result [3]: no binding (tested: up to 300 nM) |
| B2 | 20.5 nM | 0.00112 s⁻¹ | 54800 M⁻¹ s⁻¹ | binding result [4]: no binding (tested: up to 300 nM); binding result [5]: no binding (tested: up to 300 nM) |
| B3 | 2.15 nM | 0.000588 s⁻¹ | 273000 M⁻¹ s⁻¹ | binding result [6]: no binding (tested: up to 300 nM); binding result [7]: no binding (tested: up to 300 nM) |
| B4 | 45.5 nM | 0.0127 s⁻¹ | 278000 M⁻¹ s⁻¹ | binding result [8]: no binding (tested: up to 300 nM); binding result [9]: no binding (tested: up to 300 nM) |
| B5 | 30.6 nM | 0.0085 s⁻¹ | 280000 M⁻¹ s⁻¹ | binding result [10]: no binding (tested: up to 300 nM); binding result [11]: no binding (tested: up to 300 nM) |
| B6 | 13.3 nM | 0.000496 s⁻¹ | 37300 M⁻¹ s⁻¹ | binding result [12]: no binding (tested: up to 300 nM); binding result [13]: no binding (tested: up to 300 nM) |
| B7 | 0.49 nM | 0.000123 s⁻¹ | 249000 M⁻¹ s⁻¹ | binding result [14]: no binding (tested: up to 300 nM); binding result [15]: no binding (tested: up to 300 nM) |
| B8 | 35.2 nM | 0.0154 s⁻¹ | 438000 M⁻¹ s⁻¹ | binding result [16]: no binding (tested: up to 300 nM); binding result [17]: no binding (tested: up to 300 nM) |
| B9 | 3.71 nM | 0.000207 s⁻¹ | 55900 M⁻¹ s⁻¹ | binding result [18]: no binding (tested: up to 300 nM); binding result [19]: no binding (tested: up to 300 nM) |
| B10 | 7.59 nM | 0.00057 s⁻¹ | 75000 M⁻¹ s⁻¹ | binding result [20]: no binding (tested: up to 300 nM); binding result [21]: no binding (tested: up to 300 nM) |
| B11 | 33.8 nM | 0.0156 s⁻¹ | 462000 M⁻¹ s⁻¹ | binding result [22]: no binding (tested: up to 300 nM); binding result [23]: no binding (tested: up to 300 nM) |
| B12 | 15.2 nM | 0.00107 s⁻¹ | 70700 M⁻¹ s⁻¹ | binding result [24]: no binding (tested: up to 300 nM); binding result [25]: no binding (tested: up to 300 nM) |
| B13 | 8.82 nM | 0.000586 s⁻¹ | 66500 M⁻¹ s⁻¹ | binding result [26]: no binding (tested: up to 300 nM); binding result [27]: no binding (tested: up to 300 nM) |
